PMC9177810, “Allosteric interactions prime androgen receptor dimerization and activation”
Blank lines part the entries; values can stand above or below the molecule they belong to.

Assays:
[1] = molecular target: Recombinant mouse AR lacking the N-terminus (mouse); test: cryo-EM structure; Grafix cross-linked complex of ΔNTD AR, DHT, ARE35 DNA and ERG (fraction 11); three states (Entrenched, Splayed, Divorced) at 11.4, 9.1 and 9.4 Å; LBD and DBD X-ray coordinates docked
AR-AR27Linker (mouse) = AR-AR27Linker (mouse) (UniProt P19091); test: fluorescence polarization; conditions: 150 mM NaCl, 40 mM Tris pH 8.0, 1 mM TCEP, 20 uM DHT, 10% glycerol, 0.01% NP40, on ice; FP 100 nM DNA, 0-4 uM protein; EMSA 50 nM DNA, 250 nM protein
AR-AR18Linker (mouse) = AR-AR18Linker (mouse) (UniProt P19091); test: fluorescence polarization; conditions: 150 mM NaCl, 40 mM Tris pH 8.0, 1 mM TCEP, 20 uM DHT, 10% glycerol, 0.01% NP40, on ice; FP 100 nM DNA, 0-4 uM protein; EMSA 50 nM DNA, 250 nM protein
AR deltaNTD WT = AR deltaNTD WT (mouse, UniProt P19091 530-899); test: fluorescence polarization; DHT; 150 mM NaCl, 40 mM Tris pH 8.0, 1 mM TCEP, 20 uM DHT, 10% glycerol, 0.01% NP40, on ice; FP 100 nM DNA, 0-4 uM protein; EMSA 50 nM DNA, 250 nM protein; conditions: protein: recombinant; tags: Smt3 fusion, removed by Ulp1; chain copies: 2; label: 5' fluorescein (FP); unlabeled (EMSA); blunt
[2] = molecular target: AR deltaNTD WT;ERG full-length (mouse;human, UniProt P19091;P11308-1 530-899;1-462, |); test: cryo-EM (9.1-11.4 A); DHT; GraFix cross-linked; AR dimer; EMD-25132, EMD-25133, EMD-25134; 150 mM NaCl, 40 mM Tris pH 8.0, 1 mM TCEP, 20 uM DHT, 10% glycerol, 0.01% NP40, on ice; FP 100 nM DNA, 0-4 uM protein; EMSA 50 nM DNA, 250 nM protein; conditions: protein: recombinant;recombinant, tags: Smt3 fusion, removed by Ulp1;Smt3 fusion, chain copies: 2;1, label: unlabeled, blunt
AR deltaNTD WT;ERG full-length, sequence (P19091 530-899, stated change not applied, chain 1 of 2): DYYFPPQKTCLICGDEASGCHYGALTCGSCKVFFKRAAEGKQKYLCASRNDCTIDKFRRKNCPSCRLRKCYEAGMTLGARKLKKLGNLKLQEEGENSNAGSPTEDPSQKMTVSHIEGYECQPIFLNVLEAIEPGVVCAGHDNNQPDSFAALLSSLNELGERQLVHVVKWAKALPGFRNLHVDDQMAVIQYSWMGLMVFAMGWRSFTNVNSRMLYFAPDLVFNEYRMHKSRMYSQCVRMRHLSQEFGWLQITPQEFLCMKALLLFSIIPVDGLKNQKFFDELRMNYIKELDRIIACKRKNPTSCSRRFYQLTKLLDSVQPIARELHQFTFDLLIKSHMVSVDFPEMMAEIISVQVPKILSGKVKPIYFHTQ
AR deltaNTD WT;ERG full-length, sequence (P11308 other isoform, or with tags, fused parts or gaps | | mutant, chain 2 of 2): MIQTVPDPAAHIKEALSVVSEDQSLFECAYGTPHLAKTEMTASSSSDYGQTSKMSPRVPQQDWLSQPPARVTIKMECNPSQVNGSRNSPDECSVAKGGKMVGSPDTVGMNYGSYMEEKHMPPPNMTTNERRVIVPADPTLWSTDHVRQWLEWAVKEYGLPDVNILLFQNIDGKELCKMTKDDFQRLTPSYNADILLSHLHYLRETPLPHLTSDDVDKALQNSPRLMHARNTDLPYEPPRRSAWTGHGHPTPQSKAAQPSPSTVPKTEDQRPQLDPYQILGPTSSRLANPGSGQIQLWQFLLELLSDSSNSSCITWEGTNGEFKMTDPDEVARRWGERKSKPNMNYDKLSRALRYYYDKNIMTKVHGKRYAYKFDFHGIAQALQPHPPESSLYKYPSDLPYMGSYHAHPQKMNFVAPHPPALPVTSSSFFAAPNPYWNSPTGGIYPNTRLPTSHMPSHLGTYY

AR deltaNTD WT, sequence (P19091 530-899, stated change not applied): as the sequence (P19091 530-899, stated change not applied, chain 1 of 2) above
AR-AR18Linker (mouse), sequence (P19091 whole entry, the tested form may be a part): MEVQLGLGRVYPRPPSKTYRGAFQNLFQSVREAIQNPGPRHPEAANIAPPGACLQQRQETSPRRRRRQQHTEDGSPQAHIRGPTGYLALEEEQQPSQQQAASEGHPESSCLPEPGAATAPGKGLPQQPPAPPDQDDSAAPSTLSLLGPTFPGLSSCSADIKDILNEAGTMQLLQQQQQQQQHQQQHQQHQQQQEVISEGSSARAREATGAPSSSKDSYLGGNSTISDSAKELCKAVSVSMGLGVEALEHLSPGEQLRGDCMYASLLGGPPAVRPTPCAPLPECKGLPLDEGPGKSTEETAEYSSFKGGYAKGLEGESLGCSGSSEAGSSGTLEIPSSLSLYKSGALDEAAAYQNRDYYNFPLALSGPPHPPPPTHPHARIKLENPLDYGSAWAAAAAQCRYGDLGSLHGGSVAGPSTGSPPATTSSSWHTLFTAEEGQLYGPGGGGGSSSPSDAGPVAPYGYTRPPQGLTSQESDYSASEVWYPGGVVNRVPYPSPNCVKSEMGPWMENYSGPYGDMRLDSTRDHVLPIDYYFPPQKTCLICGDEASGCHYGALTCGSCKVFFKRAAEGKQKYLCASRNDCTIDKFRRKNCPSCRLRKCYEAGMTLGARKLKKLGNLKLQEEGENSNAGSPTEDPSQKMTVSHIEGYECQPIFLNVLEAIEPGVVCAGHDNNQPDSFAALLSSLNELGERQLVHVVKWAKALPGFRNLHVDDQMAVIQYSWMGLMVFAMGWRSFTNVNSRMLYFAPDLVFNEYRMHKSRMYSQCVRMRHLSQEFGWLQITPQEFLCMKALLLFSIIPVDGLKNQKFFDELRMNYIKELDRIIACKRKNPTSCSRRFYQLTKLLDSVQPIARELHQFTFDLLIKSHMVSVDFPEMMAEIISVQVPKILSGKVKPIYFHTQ
AR-AR27Linker (mouse), sequence (P19091 whole entry): as the sequence (P19091 whole entry, the tested form may be a part) above

stoichiometry N [1]: 2
Molecule: Recombinant mouse AR lacking the N-terminus (domain or fragment)

Molecule: TACCTAGCGTGGCCAGAACATCATGTTCTCCGGTGCGATCCAG (double strand) [ARE/Scr (ARE43)]
binding signal (fold weaker than WT AR) (AR-AR27Linker (mouse)): 3
binding signal (fold tighter than WT AR) (AR-AR18Linker (mouse)): 5

B1: ARE/Scr (ARE43) (dsDNA)
DNA 1: TACCTAGCGTGGCCAGAACATCATGTTCTCCGGTGCGATCCAG
DNA 2: CTGGATCGCACCGGAGAACATGATGTTCTGGCCACGCTAGGTA
binding result (AR deltaNTD WT): binds

B2: ARE35 (dsDNA)
DNA 1: TAGCGTGGCCAGAACATCATGTTCTCCGGTGCGAT
DNA 2: ATCGCACCGGAGAACATGATGTTCTGGCCACGCTA
binding result [2]: binds
